{
  "source": "the nanobody polyreactivity screen of Harvey et al. (2022)",
  "data": [
    {"test": "yeast display, Sf9 membrane polyspecificity reagent, FACS + sequencing; frameworks hold sequencing errors", "procedure,_shortened": "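Synthetic nanobody libraries on Saccharomyces cerevisiae BJ5465 were galactose-induced for 36–48 hours, stained 1 hour at 4 °C with 10% biotinylated, detergent-solubilized Sf9 membrane reagent and enriched on streptavidin microbeads. FACS then separated cells into low and high (top ~1%) gates by anti-HA (expression) and streptavidin (reagent binding) fluorescence. Genes were colony-PCR amplified, MiSeq 2 × 250 sequenced and CDR-length filtered. A clone's polyreactivity label is that of its gate of origin.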", "values": [
      {"sequence": "QVQLVESGGGLVQAGGSLRLSCAASGRTFEQYAMGWYRQAPGKERELVAAISGSGGSTFYADSVKGRFTISRDNAKNTVYLQMNSLKPEDTAVYYCAVDAYPPFFYFTSVWFSYDYWGQGTQVTVSS", "polyreactivity (PSR sort gate)": "low polyreactivity"},
      {"sequence": "QVQLVESGGGLVQAGGSLRLSCAASGFIFRYYAMGWYRQAPGKERELVAAISRSGGSTYYADSVKGRFTISRDNAKNTVYLQMNSLKPEDTAVYYCAALQSRSWYQFNYWGQGTQVTVSS", "polyreactivity (PSR sort gate)": "high polyreactivity"},
      {"sequence": "QVQLVESGGGLVQAGGSLSLSCAASGITFGLYTLGWYRQAPGKERELVASISQSGGSTYYADSVKGRFTNSRDNAKNTVYLQMNSQKQEDTAVYYCNARRRFWDFSTRGYDSWGQGTQGTVSS", "polyreactivity (PSR sort gate)": "high polyreactivity"},
      {"sequence": "QVQLVESGGGLVQAGGSLRLSCAASGFIFNHYAMGWYRQAPGKEREFVAAISWSGGSTYYADSVKGRFTISRDNAKNTVYLQMNSLKPEDTAVYYCAASYNCLWHGDYDYWGQGTQVTVSS", "polyreactivity (PSR sort gate)": "low polyreactivity"},
      {"sequence": "QVQLVESGGGLVQAGGILRLSCAASGLTFAKYAMGWYRQAPGKERELVAAITKSSGSTYYADSVKGRFTISRDNAKNTVYFQMNSLKPEDTAVYYCAAGIYAFRRHREEYHYWGQGTQVTVSS", "polyreactivity (PSR sort gate)": "high polyreactivity"},
      {"sequence": "QVQLVESGGGLVQEGGSLRLSCAASGRTLHKNVMGWYRQAPGKERELVAAINTGGRTYYADSVKGRFTISRDNAKHTVYLQMNSLKPEDTAVYYCAKEGHVNPRPTVGGDYWGHGTQVTVSS", "polyreactivity (PSR sort gate)": "low polyreactivity"},
      {"sequence": "QVQLVESGGGLVQAGGSLRLSCAASGSTSDINAMGWYRQAPGKERELVAVITDSSNTDYADSVKGRFTISRDNAKNTVYLQMNSLKPEDTAVYYCAADRDEPDPYDYWGQGTQVTVSS", "polyreactivity (PSR sort gate)": "low polyreactivity"},
      {"sequence": "QVHLVESGGGIVQARGSLRLSCDASGFIFYDYAMGSYRLAPGKEWELVAAISKRGGSRYYADSVKGRFTISRDNAKNTVYLQMNSLKPEDTAVYYCATEVEPYAYGYWGQGTQVTVSS", "polyreactivity (PSR sort gate)": "high polyreactivity"},
      {"sequence": "QVQLVESGGGLVQAGGSLRLSCAASGRTFAGNAMGWYRQAPGKERELVAAISQGGGSTYYADSVKGRFTISRDNAKNTVYLQMNSLKPEDTAVYYCAAEIPRRWASFATLWYDYWGQGTQVTVSS", "polyreactivity (PSR sort gate)": "low polyreactivity"},
      {"sequence": "QVQLVESGGGLVQAGGSLRLSCAASGRTLPSYSMGCYREAPGKERELFAAITGSGGRTYYADSVKGRFTISRDNAKNSVYLQMNSLKPEDTAVYYCNAYSRTWYARSYYYWGQGTQVTVSS", "polyreactivity (PSR sort gate)": "high polyreactivity"},
      {"sequence": "QVQLVESGGGLVQAGGSLRLSCAASGRTFGINAMGWYRQAPGKERELVAVISFGEGGTYYADSVKGRFTISRDNAKNTVYLQMNSLKPEDTAVYYCATDYQSTSVWGGHFVINPYDYWGLGTQVTVSS", "polyreactivity (PSR sort gate)": "low polyreactivity"},
      {"sequence": "QVQLVESGGGLLQAGGSLRLSCAASGRIFYSNAMGWYRQAPGKERELVATRTRRGGGTYYADSVKGRFTISRDNAKNSVYLQMNSLKPVDTAVYSCNAYDILPGGNFWYWYGSWGQGTQVTVSS", "polyreactivity (PSR sort gate)": "high polyreactivity"},
      {"sequence": "QVQLVESGGGLVQAGGSLRLSCAASGRIFQTYAMGWYRQAPGKERELVAAISSRGRTYYADSVKGRFTISRDNAKNTVYLQMNSLKPGDTAVYYCAARDWSHRPRGYDYWGQGTKVTVSS", "polyreactivity (PSR sort gate)": "high polyreactivity"},
      {"sequence": "QVQLVESGGGLVQAGGILRLSCAASGFTFTRNAKGRYRQAPGKERELVAAISSGGRTYYADSVKGRFTISRDNAKNTVYLQMNSLKPEDTAVYYCPTTIWGPVEGYDYWGQGTQETVSS", "polyreactivity (PSR sort gate)": "high polyreactivity"},
      {"sequence": "QLQLVESGGGLVQAGGSLRLSCAASGSIFGGYAMGWYRQAPGKERELVAAITGTDTTNYADSVKGRFTISRDNAKNTVYLQMNSLKPEDTAVFYCNADYQPVAAVYNYDYWGQGTQVTVSS", "polyreactivity (PSR sort gate)": "low polyreactivity"},
      {"sequence": "QVQLVESGGGLVQAGGSLRLSCAASGLTFWWYAMGWYRQAPGKERELVAAISSSGGSTYYADSVKGRFTISRDIAKNTVYLQMNSLKPEDTAVYYCAVASWDNYWDPYGYWGQGTQVTVSS", "polyreactivity (PSR sort gate)": "low polyreactivity"}
    ]}
  ]
}
